Test [1] has as its target suPAR in human plasma from FSGS patients (human) (UniProt Q03405). Description: immunodepletion of FSGS plasma, remaining suPAR measured by R&D ELISA.
A further test concerns the target protein G-agarose beads (UniProt P06654). Description: mock depletion of FSGS plasma with protein G-agarose beads only, R&D ELISA. Background: An ELISA detects its analyte on a solid surface through an enzyme-linked reagent.

Sequence of suPAR in human plasma from FSGS patients (Q03405 23-305 limits assumed): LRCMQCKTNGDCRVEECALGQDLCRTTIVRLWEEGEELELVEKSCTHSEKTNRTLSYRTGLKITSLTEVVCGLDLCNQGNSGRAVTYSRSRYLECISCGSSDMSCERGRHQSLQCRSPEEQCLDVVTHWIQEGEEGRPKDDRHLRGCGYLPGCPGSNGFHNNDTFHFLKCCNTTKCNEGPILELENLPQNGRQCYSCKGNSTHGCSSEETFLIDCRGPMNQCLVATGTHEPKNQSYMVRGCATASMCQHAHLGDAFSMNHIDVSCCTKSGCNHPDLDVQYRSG
Sequence of suPAR in human plasma from FSGS patients (human) (Q03405 23-305 limits assumed): as above

“mouse monoclonal anti-suPAR antibody ATN615”: the percent of suPAR removed from human plasma in test [1] was above 99%. “suPAR in human plasma from FSGS patients (from UniProt Q03405 23-305) (receptor)” displayed a percent lowering of suPAR level in plasma with protein G-agarose beads of 20 to 50%.

The record behind these values is US20160169910A1.
